Test results reported in patent US20250101107A1 (REPERTOIRE IMMUNE MEDICINES, published 2025).
Positions count from the first letter of the chain named. In names and notes the source's numbering stands.

B1: 03-Parent-VH-D64E (antibody, V domains shown)
VH: DVQFQESGPGLVKPSQSLSLTCTVTGYSITSDFAWNWIRQFPGNELEWMGYISYSGETNYNPSLRSRISITRDTSKNQFFLQLDSVTTEDTATYYCTIRGYYTDSAFVFWGQGTLVTVSA
VL: DIQMTQSSSYLSVSLGGRVTITCKASDHINNWLAWYQQKPGNAPRLLISGATSLETGVPSRFTGSGSGLDYTLSITSLQTEDVATYYCQQYWNSPFTFGSGTKLEIK
notes: also called 03A01 VH-D64E
B2: humanized 03A01-VH1-VK1 (antibody, V domains shown)
VH: EVQFQESGPGLVKPSQTLSLTCTVTGYSITSDFAWNWIRQPPGKELEWMGYISYSGDTNYNPSLRSRITISRDTSKNQFSLKLSSVTAADTATYYCTIRGYYTDSAFVFWGQGTLVTVSS
VL: DIQMTQSSSTLSVSLGDRVTITCKASDHINNWLAWYQQKPGKAPRLLISGATSLETGVPSRFSGSGSGLEYTLTISSLQPDDFATYYCQQYWNSPFTFGQGTKLEIK
B3: humanized 03A01-VH4-VK3 (antibody, V domains shown)
VH: B2 VH with T25S, E45G, M49I, N59Y, R65K, I68V, T93V
VL: B2 VL with S8P, V13A, L15V, R45K
B4: humanized 03A01-VH2-VK1 (antibody, V domains shown)
VH: B2 VH with T25S, E45G, T93V
VL: B2 VL
B5: humanized 03A01-VH4-VK1 (antibody, V domains shown)
VH: B2 VH with T25S, E45G, M49I, N59Y, R65K, I68V, T93V
VL: B2 VL
B6: humanized 03A01-VH4-VK2 (antibody, V domains shown)
VH: B2 VH with T25S, E45G, M49I, N59Y, R65K, I68V, T93V
VL: B2 VL with S8P, L15V, R45K
B7: 02-Parent-VH-M39L (antibody, V domains shown)
VH: EVQLQQSGPELVKPGASLKISCKASGYTFTDFTLHWVKQSHGKSLEWIGLVNPNNGGNIYNQNFKGKATLTVDTSSSTAYMELRSLTSEDSSVYYCGRVPLYTSHGMDYWGQGTSVTVSS
VL: DIVLTQSPAFLAVSLGQRATISCRASESVDSYDINSMHWYQQKPGQPPKLLIYRASHLQSGIPARFSGSGSRTDFTLTINFVEADDVATYYCQQSNEDPLTFGAGTKLELK
notes: also called murine 02A01 VH-M39L
B8: humanized 02A01-VH2-VK2 (antibody, V domains shown)
VH: EVQLVQSGAEVKKPGATLKISCKASGYTFTDFTMHWVQQAPGKGLEWIGLVNPNNGGNIYNQNFKGRATLTVDTSTSTAYMELSSLRSEDTSVYYCGRVPLYTSHGMDYWGQGTLVTVSS
VL: EIVLTQSPATLSVSPGERATISCRASESVDSYDINSMHWYQQKPGQAPRLLIYRASHLQSGIPARFSGSGSRTDFTLTISSVEPEDFATYYCQQSNEDPLTFGQGTKLEIK
B9: humanized 02A01-VH3-VK1 (antibody, V domains shown)
VH: B8 VH with N61A, Q62E, N63K, K65Q
VL: B8 VL with A47P
B10: humanized 02A01-VH1-VK1 (antibody, V domains shown)
VH: B8 VH with A9P, K12V, Q38K, G44S
VL: B8 VL with A47P
B11: humanized 02A01-VH1-VK3 (antibody, V domains shown)
VH: B8 VH with A9P, K12V, Q38K, G44S
VL: B8 VL with V13L, V82L
B12: humanized 02A01-VH2-VK1 (antibody, V domains shown)
VH: B8 VH
VL: B8 VL with A47P
B13: humanized 02A01-VH3-VK2 (antibody, V domains shown)
VH: B8 VH with N61A, Q62E, N63K, K65Q
VL: B8 VL
B14: humanized 02A01-VH1-VK2 (antibody, V domains shown)
VH: B8 VH with A9P, K12V, Q38K, G44S
VL: B8 VL

Target: T1, human CD8 on human T cells (human, UniProt P01732 22-235; P10966 22-210)
T1 construct: whole, on cells; Target as carried by human CD3+/CD8+ T cells, PBMCs or MART-1-specific T cells; the mice were immunized with human CD8a; also called hCD8; CD8 expressed on the cell surface
Assay: flow cytometry, 5 nM antibody on human CD8+ T cells, anti-human IgG detection (MFI AF647)
Protocol: The 16 above-referenced humanized 03A01-derived anti-CD8 antibodies were screened for their ability to bind human CD8 by evaluating binding to CD8⁺ T cells. The non-humanized parent (“03-Parent”) and the non-humanized parent comprising a heavy chain D64E liability mutation (“03-Parent-VH-D64E”) were used as controls. […] Cells were washed with 1 X phosphate buffered saline (PBS) containing 1 mg/mL bovine serum albumin (PBS/BSA) and then stained with a 1:100 dilution of DyLight650-conjugated anti-human IgG H+L polyclonal antibody (ThermoFisher cat. no. Sa5-10129) in PBS/BSA. Following a 20-30 min incubation at 4° C., the cells were washed once with PBS/BSA, and then resuspended in PBS/BSA for analysis on a FACSCelesta using Diva software (BD Biosciences). The resulting data were analyzed using FlowJo. Data were quantified and reported as Max fluorescence intensity (MFI) of human IgG-Fc. […] Complete replacement of the LCDR1 (antibodies comprising VK4) eliminated binding to the CD8+ T cells.

T1 sequence (P01732 22-235, chain 1 of 2): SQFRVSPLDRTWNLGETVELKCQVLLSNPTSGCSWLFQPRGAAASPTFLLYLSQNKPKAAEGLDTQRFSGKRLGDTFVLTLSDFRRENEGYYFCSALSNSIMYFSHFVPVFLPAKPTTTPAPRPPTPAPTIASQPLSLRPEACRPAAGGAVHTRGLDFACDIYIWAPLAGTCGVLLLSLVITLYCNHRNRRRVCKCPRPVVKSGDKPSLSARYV
T1 sequence (P10966 22-210, chain 2 of 2): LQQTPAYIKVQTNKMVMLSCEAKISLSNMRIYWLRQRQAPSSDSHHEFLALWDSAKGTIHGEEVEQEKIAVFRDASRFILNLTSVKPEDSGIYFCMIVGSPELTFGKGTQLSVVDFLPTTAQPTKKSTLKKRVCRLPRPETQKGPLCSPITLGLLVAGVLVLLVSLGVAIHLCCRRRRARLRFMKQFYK

binding result | Binder
binds | B1
binds | B2
binds | B3
binds | B4
binds | B5
binds | B6

Target: T1, human CD8 on human T cells
Assay: flow cytometry, 0.2 nM antibody on human CD8+ T cells, anti-human IgG detection (MFI AF647)
Protocol: The 24 humanized 02A01-derived anti-CD8 antibodies (excluding 02A01-VK3(D30E/N35Q)) were screened for their ability to bind human CD8 by evaluating binding to CD8+ T cells. The non-humanized parent (“02-Parent”) and the non-humanized parent comprising a heavy chain M39L liability mutation (“02-Parent-VH-M39L”) were used as controls. […] Cells were washed with 1×phosphate buffered saline (PBS) containing 1 mg/mL bovine serum albumin (PBS/BSA) and then stained with a 1:100 dilution of DyLight650-conjugated anti-human IgG H+L polyclonal antibody (ThermoFisher cat. no. Sa5-10129) in PBS/BSA. Following a 20-30 min incubation at 4° C., the cells were washed once with PBS/BSA, and then resuspended in PBS/BSA for analysis on a FACSCelesta using Diva software (BD Biosciences). The resulting data were analyzed using FlowJo. Data were quantified and reported as Max fluorescence intensity (MFI) of human IgG-Fc. […] Complete replacement of the HCDR1 (antibodies comprising VH5) eliminated binding to the CD8+ T cells.

binding result | Binder
binds | B7
binds | B8
binds | B9
binds | B10
binds | B11
binds | B12
binds | B13
binds | B14
